Experiment [1] deals with P. cinnamomi. Nature of the experiment: Potted young cork oak inoculated with P. cinnamomi, extension of root lesions. Type of experiment: in vivo, Quercus suber. Particulars: plants sprayed; for root lesion severity: compared with inoculated control. As for the experimental part: In a separate experiment, potted young cork oak plants (Quercus suber) were inoculated with P. cinnamomi and incubated under greenhouse conditions. The plants were sprayed with potassium phosphonate, salicylic acid, Blad and other compounds/extracts under study. The severity of the infection was assessed by quantifying the extension of plant root lesions.

For experiment [2], the system named is P. chlamydospora. Nature of the experiment: Pruning wound protection under real vineyard conditions, wounds brushed with P. chlamydospora spores. The conditions noted are these: for fungi re-isolated in vitro from the treated wood: culture-dependent methods. Type of experiment: in vivo, grapevine. As for the experimental part:
In an experiment designed as an attempt to protect pruning wounds from esca fungal infection, a couple of surprising observations were made when immediately after pruning under real vineyard conditions, the fresh wounds were brushed with 50 μl of water (control), or of Blad, the commercial fungicide Switch or copper oxychloride solutions (24 replicates for each treatment), and 24 h, 1 month and 2 months afterwards the pruning wounds were brushed with P. chlamydospora spore suspensions. […] On top of that, the diversity of fungi that could be re-isolated in vitro (using culture-dependent methods) from that wood was also lower. […] This remarks the efficient fungicide activity of the two chemicals on P. chlamyobspora, although this fungus seems to be less affected than other natural endophytes of the grapevine. The applicant's analyses of the mycobiome by metabarcoding using Illumina® next-generation sequencing (NGS) techniques detected only minor changes in some taxa composition and in colonization success of some endophytes in grapevine wood after a single copper application. The copper/systemic fungicides didn't change the mycobiome composition in major ways and didn't even directly advantage the pathogen.

Experiment [3] relates to external fungi. The experiment is described as follows: Fungicides in vitro on potato dextrose agar Petri dishes. Type of experiment: cell-based. Particulars: PDA plus individual fungicides.
For experiment [4], the system named is Phaeomoniella chlamydospora. Nature of the experiment: Relative abundance of P. chlamydospora in wood of potted grapevine cuttings (metabarcoding, greenhouse). The conditions noted are these: for relative abundances (%) of P. chlamydospora: fungicide treatment per column. Type of experiment: in vivo, Vitis vinifera cv Cabernet Sauvignon. The source says: Wood samples were carefully collected from grapevine rooted cuttings of Vitis vinifera cv Cabernet Sauvignon grown under greenhouse conditions, which underwent different inoculations and fungicide treatments and their mycobiomes identified by metabarcoding using Illumina® next-generation sequencing (NGS) techniques.
On top, barplots grouped by ‘Inoculation’ type; bottom, barplots grouped by ‘Fungicide’ treatment.
In a subsequent experiment (see also below), potted vines were co-inoculated with P. chlamydospora and a skopobiota (spore suspensions from four fungal species naturally occurring in the grapevine microbiome).
C22 and Aureobasidium pullulans AU86. All fungi were maintained in Petri dishes with vents, on potato dextrose agar medium (Difco™), at 25° C., in the dark.

The subject of experiment [5] is grapevine wood mycobiome. The experiment is described as follows: Grapevine wood mycobiome composition and networks after fungicide treatments (metabarcoding). Type of experiment: in vivo, Vitis vinifera cv Cabernet Sauvignon. Particulars: foliar application / spray. The source says:
Wood samples were carefully collected from grapevine rooted cuttings of Vitis vinifera cv Cabernet Sauvignon grown under greenhouse conditions, which underwent different inoculations and fungicide treatments and their mycobiomes identified by metabarcoding using Illumina® next-generation sequencing (NGS) techniques. The barplots represented in FIG. 2 show the relative abundances of grapevine wood taxa in plants subjected to different fungicide treatments and inoculation types.
FIG. 4 illustrates the effect of fungicide applications on the grapevine wood relative taxa abundance.
In FIG. 4, the differential heat tree matrix depicts the changes in taxa abundance between different fungicide treatments. The size of the individual nodes in the grey cladogram depicts the number of taxa identified at that taxonomic level. The smaller cladograms show pairwise comparisons between each treatment, with the colour illustrating the log2 fold change: a red node indicates a lower abundance of the taxon in the tissue group stated on the abscissa, than in the tissue group stated on the ordinate. A blue node indicates the opposite.
The networks presented in FIG. 5 show how Blad creates a different link among taxa, when compared with control and other fungicides.

Experiment [6] is described as follows: Early growth at bud break after application onto pruning wound. The conditions noted are these: 50 μl onto the pruning wound, one treatment per plant. Type of experiment: in vivo, grapevine. As for the experimental part: The photos were taken at the same plant a couple of months later, at bud break. Compare with the natural development state of the vineyard in the background. Twenty-four replicates were prepared for each treatment.

A short description of experiment [7]: Growth of nine-week-old carrots in soil with skopobiota-loaded bentochar, with or without Blad spray. Type of experiment: in vivo, carrot cv Nantes. As for the experimental part: (§1) Twelve carrot seeds cv Nantes were sown in soil containing the different combinations of SLB described above, as well as in positive and negative controls, for a total of 12 treatments (see below). Four weeks after sowing, six mycelium plugs of Trichoderma gamsii were added to each treatment tests, with the exception of the ‘negative control’.
Nine weeks after sowing, carrots were examined for three parameters: (1) above-ground growth, (2) number of fully unfolded leaves, and (3) presence of necrotic lesions or browning in roots.
(§2) Similarly to what described in section ‘Effects on the growth of nine-week-old carrots’, the same skopobiota-loaded bentochar treatments were tested also in combination with a weekly spray of Blad on carrot leaves. The tested Blad concentration was 2 mL Blad per L of water.
The same parameters described in ‘Effects on the growth of nine-week-old carrots’ were assessed.

The test system of experiment [8] is Trichoderma gamsii. The experiment is described as follows: Root browning and necrotic lesions score in carrot roots. In kind it is in vivo, carrot cv Nantes. As for the experimental part:
as §1
A combination of factors, in which the presence of Trichoderma gamsii was determinant, induced the presence of root browning and necrotic lesion, as shown in FIG. 32.
Carrot roots of each biological replicate, grown under different treatments, were examined to assess differences in the development of root browning and necrotic lesions.
as §2

The mark [9] stands for this setting: With Blad, weekly spray on leaves, 2 mL Blad per L of water.

Entries after “also recorded” stand apart in the source; their conditions may differ.

Take “potassium phosphonate [reference compound]”: the root lesion severity result in experiment [1] is “lower than the inoculated control”.

As to `O=C(O)c1ccccc1O` [salicylic acid, reference compound], the root lesion severity entry in experiment [1] is reported as “lower than the inoculated control”.

On to `[Cl-].[Cu+2].[Cu+2].[OH-].[OH-].[OH-]` [copper, copper oxychloride], for which the “fungi re-isolated in vitro from the treated wood” value in experiment [2] is given as “nothing but P. chlamydospora could be re-isolated”. Also, the “brown streaking of artificially infected shoots” value in experiment [2] (fresh pruning wounds brushed with 50 μl, then P. chlamydospora spores) is given as “darker brown streaking”. The “contamination of PDA Petri dishes containing the fungicide” value in experiment [3] is reported as “to a minor extent”.

B1: Blad: 173-residue polypeptide (SEQ ID NO: 4), residues 109-281 of Lupinus β-conglutin precursor; main subunit of the 210 kDa oligomer BCO (protein)
chain: ARGARGGLNARGASNPRTYRHISPHESERSERGLNARGPHEGLNTHRLETYRLYSASNARGASNGLYLYSILEARGVALLEGLARGPHEASPGLNARGTHRASNARGLEGLASNLEGLNASNTYRARGILEVALGLPHEGLNSERLYSPRASNTHRLEILELEPRLYSHISSERASPALAASPTYRVALLEVALVALLEASNGLYARGALATHRILETHRILEVALASNPRASPARGARGGLNALATYRASNLEGLTYRGLYASPALALEARGILEPRALAGLYSERTHRSERTYRILELEASNPRASPASPASNGLNLYSLEARGVALVALLYSLEALAILEPRILEASNASNPRGLYTYRPHETYRASPPHETYRPRSERSERTHRLYSASPGLNGLNSERTYRPHESERGLYPHESERARGASNTHRLEGLALATHRPHEASNTHRARGTYRGLGLILEGLNARGILEILELEGLYASNGLASP
Turning to B1, the “relative abundances (%) of P. chlamydospora” value in experiment [4] (NO-INOCULATION, potted rooted grapevine cuttings, greenhouse) worked out at 3.78%; in experiment [4] (inoculated with P. chlamydospora + skopobiota at separate locations in the trunk) it was 1.34%; in experiment [4] (inoculated with P. chlamydospora alone), 6.31%. The “relative abundance of P. chlamydospora” value in experiment [4] (potted vines co-inoculated with P. chlamydospora and a skopobiota (four fungal species)) is reported as 1%. Moreover, the “relative abundance of the inoculated pathogen” value in experiment [4] (potted vines inoculated with P. chlamydospora and sprayed) was 6%. Further, the “changes in the grapevine wood mycobiome” value in experiment [5] is on record as “created a different network of interactions in the wood mycobiome; also recorded: induced marked changes in the grapevine wood mycobiome”. The “fungi re-isolated in vitro from the treated wood” value in experiment [2] is “many other endophytes”. Also, the “early growth several months after pruning” value in experiment [6] is “boost observed in the early growth”. The “root lesion severity versus non-inoculated control” value in experiment [1] was “did not differ significantly from the non-inoculated control”. Moreover, the root lesion severity result in experiment [1] is “only treatment producing excellent results on the infection levels; also recorded: lower than the inoculated control”; in experiment [1] (listed as BLAD) it was “lowest lesion severity”. In addition, the “Above-ground growth (% of control) Mean ± SD” value in experiment [7] (setting [9]) was 98% ± % of control. The “Number of leaves (% of control) Mean ± SD” value in experiment [7] (setting [9]) is reported as 108% ± % of control. For the same molecule, in experiment [7] (in words, compared with treatments without Blad), the “number of leaves of carrots” value is listed as “increases the overall number of leaves”. Moreover, the “above-ground growth of carrots” value in experiment [7] (in words, weekly spray with Blad) is “positively affected”. The “Total score of root symptoms” value in experiment [8] (With Blad, weekly spray, 2 mL Blad per L of water) is on record as 2. In addition, in experiment [8] (in words), the “root symptomatology compared with the positive control” value was “strongly reduced the development of root symptoms”.

For the origin of these results see patent publication US20220408730A1, “PLANT TREATMENT” (INSTITUTO SUPERIOR DE AGRONOMIA, priority 2019, published 2022).
